As usually defined, the Kd is the concentration at which binding is half-saturated. By koff is commonly meant a measure of how fast the partners let go of each other. For orientation: kon means the rate constant with which the complex forms.

The values that follow come from patent US20250313626A1 (HARBOUR BIOMED SHANGHAI, published 2025).

Assay [1] has as its target T1, Mouse CD200R1-His (mouse, UniProt Q9ES57 26-238, limits assumed).
T1 sequence (looked up): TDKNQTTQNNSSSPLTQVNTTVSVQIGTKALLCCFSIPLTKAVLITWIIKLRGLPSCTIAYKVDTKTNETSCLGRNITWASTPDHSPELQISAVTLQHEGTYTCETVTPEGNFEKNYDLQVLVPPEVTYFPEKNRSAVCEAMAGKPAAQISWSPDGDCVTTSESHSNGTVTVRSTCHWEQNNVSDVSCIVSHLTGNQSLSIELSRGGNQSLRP
The experiment in a line: BLI (Octet), antibody captured on anti-human Fc sensor. Here is the method:
(§1) To determine the binding affinities of the anti-CD200R1 antibodies to CD200R1a proteins of various species (mouse, human, Cynomolgus macaques), bio-layer interferometry (BLI) assays were carried out using an Octet® RED96e instrument. Antibodies were produced as described in Example 3.4 and diluted to 5 μg/mL using freshly prepared 1× kinetic buffer (10× kinetic buffer (Catalog #18-1105, ForteBio) was diluted with PBS(Catalog #E607016-0500, BBI Life Sciences)) and were captured on the surface of anti-human Fc (AHC) Octet biosensors (Catalog #18-5060, ForteBio) to reach capture levels between 0.9-1.2 nm. The biosensors having the captured anti-CD200R1 antibodies were then dipped in wells containing 2-fold serial dilutions of CD200R1a proteins to detect association signals, followed by dissociation steps in wells containing 1× kinetic buffer. The sensorgrams were recorded and the reference signals were subtracted before curve fitting using ForteBio Data Analysis 11.0 software. Association rates (kₒₙ) and dissociation rates (koff) were calculated using a simple one-to-one Langmuir binding model. The equilibrium dissociation constant (KD) was calculated as the ratio of koff/kₒₙ.
A general note: In BLI a coated tip is dipped into the sample, and binding shifts an interference pattern.

Assay [2] concerns the target T2, human CD200R1a protein (soluble recombinant) (human, UniProt Q8TD46 29-265).
T2 construct: Soluble protein used in BLI; also called human CD200R1 isoform a; not shown: His tag implied by capture on anti-Penta-HIS biosensors
T2 sequence: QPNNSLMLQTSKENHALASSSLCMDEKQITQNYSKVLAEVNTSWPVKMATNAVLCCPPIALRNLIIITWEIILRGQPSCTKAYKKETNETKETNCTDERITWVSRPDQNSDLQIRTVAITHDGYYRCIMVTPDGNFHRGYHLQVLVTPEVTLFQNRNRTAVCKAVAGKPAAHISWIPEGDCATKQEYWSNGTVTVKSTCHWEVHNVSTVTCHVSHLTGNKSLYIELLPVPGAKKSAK
The experiment in a line: BLI (Octet), antibody captured on anti-human Fc sensor, soluble CD200R1a as analyte, 1:1 fit. Here is the method: as §1

For assay [3], the target named is T3, Cyno CD200R1a-His (Cynomolgus macaques, UniProt Q8TD46 25-265 (human entry)).
T3 construct: Soluble protein used in BLI; also called Cynomolgus macaques CD200R1a recombinant protein; not shown: His tag
T3 chain: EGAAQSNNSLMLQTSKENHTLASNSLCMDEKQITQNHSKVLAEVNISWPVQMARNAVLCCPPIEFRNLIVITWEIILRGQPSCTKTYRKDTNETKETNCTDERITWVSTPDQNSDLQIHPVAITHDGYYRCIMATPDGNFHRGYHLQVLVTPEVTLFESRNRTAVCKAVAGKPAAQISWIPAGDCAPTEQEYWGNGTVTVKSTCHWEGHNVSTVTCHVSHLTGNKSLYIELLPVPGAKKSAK
The assay is described as above. Here is the method: as §1

Assay [4] concerns the target T4, human CD200R1 isoform a on CHOK1 cells (CHOK1/hCD200R1a) (human, UniProt Q8TD46 25-348).
T4 construct: also called CHOK1/CD200R1a
T4 sequence: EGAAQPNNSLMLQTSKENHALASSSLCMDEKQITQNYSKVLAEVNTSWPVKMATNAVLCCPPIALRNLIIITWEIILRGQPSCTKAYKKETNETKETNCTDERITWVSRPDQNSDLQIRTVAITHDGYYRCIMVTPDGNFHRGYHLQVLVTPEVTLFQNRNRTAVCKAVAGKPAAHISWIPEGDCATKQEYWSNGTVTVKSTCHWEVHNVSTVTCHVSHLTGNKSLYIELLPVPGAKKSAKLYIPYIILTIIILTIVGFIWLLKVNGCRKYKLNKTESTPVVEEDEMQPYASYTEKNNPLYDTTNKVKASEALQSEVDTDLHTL
The assay can be described thus: flow cytometry blocking assay: biotin-labelled human CD200 binding to CHOK1/hCD200R1a cells; y axis Inhibition %. The method, then:
In brief, CHOK1/hCD200R1a cells were digested and resuspended in 2% BSA in PBS. […] The cells were placed at 4° C. and incubated for 1 hour in the dark. […] 100 μL/well of pre-cooled PBS containing 2% BSA was added to rinse the cells twice, centrifugation was performed at 500 g, 4° C. for 5 minutes, and the supernatant was discarded. Fluorescent secondary antibody (PE Streptavidin, BD, Cat #: 554061, 1:200) was added at 100 μL/well, and incubation was performed at 4° C. for 30 minutes in the dark. The cells were washed twice with 200 μL/well of pre-cooled PBS, and were centrifuged at 500 g, 4° C. for 5 minutes, and the supernatant was discarded. Finally, 200 μL/well of pre-cooled PBS was used to resuspend the cells, and the fluorescence signal values were read using ACEA Novocyte 3000 flow cytometer. IC50 values were calculated.
Background: A flow cytometer gives signals particle by particle.

B1: PR005509 (antibody, human IgG1, kappa, L234A L235A, V domains shown)
VH: QVQLVESGGGVVQPGRSLRLSCAASGFTFSSYGFHWVRQAPGKGLEWLGLIWSDGSNKYYADSVKGRFTISRDNSKNTLYLQMNSLRAEDTAVYYCARDRIVGAGFDYWGQGTLVTVSS
VL: not shown
Take B1: the binding result in assay [1] is given as “no binding”. Besides, in assay [2], the Kd amounted to 7.74 nM, the koff stood at 0.000511 s⁻¹ and the kon was 66100 M⁻¹ s⁻¹. In assay [3], this molecule gave a Kd of 146 nM, a koff of 0.0275 s⁻¹ and a kon of 189000 M⁻¹ s⁻¹.

B2: PR005474 (antibody, human IgG1, kappa, L234A L235A, V domains shown)
VH: QVQLVESGGGVVQPGRSLRLSCAASAFTFSSYGMHWVRQAPGKGLEWVALIWNDGSNKFYADSVKGRFTISRDNSKNTLFLQMNSLRAEDTAVYYCARDRILGAGFDYWGQGTLVTVSS
VL: not shown
Regarding B2, in assay [1], the binding result was “no binding”. In assay [2], the Kd is 16.6 nM, the koff was 0.00101 s⁻¹ and the kon amounted to 60700 M⁻¹ s⁻¹. In assay [3], the Kd was determined as 147 nM, the koff worked out at 0.0287 s⁻¹ and the kon is 196000 M⁻¹ s⁻¹.

B3: PR007973 (antibody, human IgG1, kappa, V domains shown)
VH: QVQLVESGGGVVQPGRSLRLSCAASGFTFSSYGFHWVRQAPGKGLEWLGIIWSDASNKYYADSVKGRFTISRDNSKNTLYLQMNSLRAEDTAVYYCARDRIVGEGFDYWGQGTLVTVSS
VL: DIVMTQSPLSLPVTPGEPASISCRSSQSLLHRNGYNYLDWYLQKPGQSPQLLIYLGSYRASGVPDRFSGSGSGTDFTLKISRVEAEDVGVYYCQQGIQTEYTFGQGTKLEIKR
notes: PTM variant of PR006839 (human IgG1)
In the case of B3, the binding result in assay [1] is recorded as “no binding”. In assay [2], the Kd was determined as 1.06 nM, the koff was 5.97e-05 s⁻¹ and the kon stood at 56200 M⁻¹ s⁻¹. In assay [3], this molecule yielded a Kd of 10.2 nM, a koff of 0.000151 s⁻¹ and a kon of 14900 M⁻¹ s⁻¹.

B4: PR002906 (antibody, V domains shown)
VH: QVQLQESGPGLVKPSETLSLTCTVSGYTITSGYDWSWIRQPPGKGLEWIGYINYGGSTNYKPSLGSRVTISVDTSKNQFSLKLSSVTAADTAVYYCARYNEYKSYIYDWYFDFWGQGTLVTVSS
VL: DIQMTQSPSSLSASVGDRVTITCKASKNIRSYLAWYQQKPGKAPKLLIYSGSTLHSGVPSRFSGSGSGTDFTLTISSLQPEDFATYYCQQHHEYPLTFGQGTKVEIKR
notes: also called recombinant IgG1 antibody of huDX182
With B4, in assay [2], the Kd is 39.3 nM, the koff was determined as 0.00341 s⁻¹ and the kon is 86700 M⁻¹ s⁻¹. In addition, in assay [4], the “Blocking(Max)” value worked out at 95.4%.

B5: PR006480 (antibody, human IgG1, kappa, L234A L235A)
heavy: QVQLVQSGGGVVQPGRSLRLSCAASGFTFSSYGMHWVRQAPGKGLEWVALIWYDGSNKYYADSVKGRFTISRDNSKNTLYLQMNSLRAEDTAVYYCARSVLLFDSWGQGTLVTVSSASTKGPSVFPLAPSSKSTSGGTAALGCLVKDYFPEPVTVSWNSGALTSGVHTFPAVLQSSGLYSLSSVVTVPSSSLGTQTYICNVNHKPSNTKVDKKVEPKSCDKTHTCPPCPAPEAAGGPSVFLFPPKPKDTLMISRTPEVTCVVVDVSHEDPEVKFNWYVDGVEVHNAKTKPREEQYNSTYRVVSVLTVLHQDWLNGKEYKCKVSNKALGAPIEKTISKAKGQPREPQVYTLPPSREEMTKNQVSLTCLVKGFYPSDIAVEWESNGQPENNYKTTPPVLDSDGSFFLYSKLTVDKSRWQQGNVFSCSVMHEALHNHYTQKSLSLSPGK
light: DIQMTQSPPSLSASVGDRVTITCRASQSISSYLNWFQQKAGKAPKLLISATSNLQSGVPSRFSGSGSGTDFTLTISSLQPEDLATYYCQQSYSSPYTFGQGTKVEIKRTVAAPSVFIFPPSDEQLKSGTASVVCLLNNFYPREAKVQWKVDNALQSGNSQESVTEQDSKDSTYSLSSTLTLSKADYEKHKVYACEVTHQGLSSPVTKSFNRGEC
notes: also called PR6480
Turning to B5, the binding result in assay [1] is on record as “no binding”. Also, in assay [2], the Kd was 14.3 nM, the koff turned out to be 0.000476 s⁻¹ and the kon amounted to 33300 M⁻¹ s⁻¹. Also, in assay [3], the Kd was determined as 104 nM, the koff was 0.00713 s⁻¹ and the kon turned out to be 68500 M⁻¹ s⁻¹. The “Blocking(Max)” value in assay [4] came to 61%.

B6: PR007223 (antibody, human IgG1, kappa)
heavy: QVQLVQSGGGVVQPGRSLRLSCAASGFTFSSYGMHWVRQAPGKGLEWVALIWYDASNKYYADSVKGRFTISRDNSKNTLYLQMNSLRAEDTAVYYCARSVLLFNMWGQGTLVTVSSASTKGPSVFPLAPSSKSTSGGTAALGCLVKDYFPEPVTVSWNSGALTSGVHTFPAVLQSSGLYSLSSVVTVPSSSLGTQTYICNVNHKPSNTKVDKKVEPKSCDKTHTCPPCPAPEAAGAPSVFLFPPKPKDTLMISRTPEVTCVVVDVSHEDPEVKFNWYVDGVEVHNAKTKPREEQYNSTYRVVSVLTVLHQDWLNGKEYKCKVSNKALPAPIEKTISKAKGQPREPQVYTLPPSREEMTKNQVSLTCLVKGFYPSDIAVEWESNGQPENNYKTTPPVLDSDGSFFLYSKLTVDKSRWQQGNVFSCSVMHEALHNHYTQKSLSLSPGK
light: DIQLTQSPPSLSASVGDRVTITCRASQSISSYLNWFQQKAGKAPKLLISATSNLQSGVPSRFSGSGSGTDFTLTISSLQPEDLATYYCQQTYSSPYTFGQGTKVEIKRTVAAPSVFIFPPSDEQLKSGTASVVCLLNNFYPREAKVQWKVDNALQSGNSQESVTEQDSKDSTYSLSSTLTLSKADYEKHKVYACEVTHQGLSSPVTKSFNRGEC
notes: PTM variant of PR006895 (human IgG1)
In the case of B6, in assay [1], the binding result is listed as “no binding”. Also, in assay [2], the Kd is 2.07 nM, the koff turned out to be 0.000133 s⁻¹ and the kon was determined as 64200 M⁻¹ s⁻¹. In assay [3], binding was characterised by a dissociation constant (Kd) of 16.3 nM, the off-rate (koff) worked out at 0.0014 s⁻¹ and the kon was determined as 86000 M⁻¹ s⁻¹. Further, the “Blocking(Max)” value in assay [4] was 88%.

B7: PR007221 (antibody, human IgG1, kappa)
heavy: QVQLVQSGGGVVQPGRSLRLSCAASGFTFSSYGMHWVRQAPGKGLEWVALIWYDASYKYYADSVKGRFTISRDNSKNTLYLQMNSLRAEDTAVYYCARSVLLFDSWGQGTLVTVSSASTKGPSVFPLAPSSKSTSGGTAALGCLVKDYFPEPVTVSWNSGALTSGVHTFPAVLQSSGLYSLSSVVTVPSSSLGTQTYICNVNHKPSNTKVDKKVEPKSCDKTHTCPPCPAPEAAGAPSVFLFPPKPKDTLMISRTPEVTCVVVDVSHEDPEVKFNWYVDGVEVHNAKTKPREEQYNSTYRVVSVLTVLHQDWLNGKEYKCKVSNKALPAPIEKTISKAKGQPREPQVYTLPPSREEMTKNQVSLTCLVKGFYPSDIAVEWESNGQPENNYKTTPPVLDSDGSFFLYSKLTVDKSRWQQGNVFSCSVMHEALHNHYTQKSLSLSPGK
light: DIQLTQSPPSLSASVGDRVTITCRASQSISSYLNWFQQKAGKAPKLLISATSNLQSGVPSRFSGSGSGTDFTLTISSLQPEDLATYYCQQTLSSPYTFGQGTKVEIKRTVAAPSVFIFPPSDEQLKSGTASVVCLLNNFYPREAKVQWKVDNALQSGNSQESVTEQDSKDSTYSLSSTLTLSKADYEKHKVYACEVTHQGLSSPVTKSFNRGEC
notes: as for B6
Consider B7, for which the binding result in assay [1] is given as “no binding”. In assay [2], the Kd is 4.34 nM, the koff was 0.000211 s⁻¹ and the kon was found to be 48600 M⁻¹ s⁻¹. Further, in assay [3], the Kd was 12.5 nM, the koff was found to be 0.000776 s⁻¹ and the kon came to 62100 M⁻¹ s⁻¹. Further, the “Blocking(Max)” value in assay [4] amounted to 80.4%.
